Measurements taken from ChEMBL document CHEMBL1140019, “Primary amides as selective inhibitors of cathepsin K” (Bioorg Med Chem Lett, 2007).

Key:
Details in all cases: Homo sapiens
[1] = substrate: CC(C)C[C@H](N[C@@H](c1ccc(-c2ccc(S(C)(=O)=O)cc2)cc1)C(F)(F)F)C(=O)NCC(N)=O; assay: (§1) Ratio of Kcat to Km for humanized rabbit cathepsin K; parameters: unit not given here
[2] = substrate: CSCC[C@H](NC(=O)[C@H](CC(C)C)N[C@@H](c1ccc(-c2ccc(S(C)(=O)=O)cc2)cc1)C(F)(F)F)C(N)=O; assay: as §1; parameters: unit not given here
[3] = substrate: Cc1cc(=O)oc2cc(NC(=O)[C@H](CCCN=C(N)N)NC(=O)[C@H](CC(C)C)NC(=O)OCc3ccccc3)ccc12; assay: as §1; parameters: unit not given here
[4] = substrate: CC(C)C[C@H](N[C@@H](c1ccc(-c2ccc(S(C)(=O)=O)cc2)cc1)C(F)(F)F)C(=O)N[C@@H](C)C(N)=O; assay: as §1; parameters: unit not given here
[5] = substrate: CC(C)C[C@H](N[C@@H](c1ccc(-c2ccc(S(C)(=O)=O)cc2)cc1)C(F)(F)F)C(=O)NCC(N)=O; assay: (§2) Activity of humanized rabbit cathepsin K at 25 uM
[6] = substrate: CSCC[C@H](NC(=O)[C@H](CC(C)C)N[C@@H](c1ccc(-c2ccc(S(C)(=O)=O)cc2)cc1)C(F)(F)F)C(N)=O; assay: as §2
[7] = substrate: Cc1cc(=O)oc2cc(NC(=O)[C@H](CCCN=C(N)N)NC(=O)[C@H](CC(C)C)NC(=O)OCc3ccccc3)ccc12; assay: as §2
[8] = substrate: CC(C)C[C@H](N[C@@H](c1ccc(-c2ccc(S(C)(=O)=O)cc2)cc1)C(F)(F)F)C(=O)N[C@@H](C)C(N)=O; assay: as §2

B1: Cathepsin K (Homo sapiens), P43235 (protein)
chain: MWGLKVLLLPVVSFALYPEEILDTHWELWKKTHRKQYNNKVDEISRRLIWEKNLKYISIHNLEASLGVHTYELAMNHLGDMTSEEVVQKMTGLKVPLSHSRSNDTLYIPEWEGRAPDSVDYRKKGYVTPVKNQGQCGSCWAFSSVGALEGQLKKKTGKLLNLSPQNLVDCVSENDGCGGGYMTNAFQYVQKNRGIDSEDAYPYVGQEESCMYNPTGKAAKCRGYREIPEGNEKALKRAVARVGPVSVAIDASLTSFQFYSKGVYYDESCNSDNLNHAVLAVGYGIQKGNKHWIIKNSWGENWGNKGYILMARNKNNACGIANLASFPKM
kcat/Km [1]: 0.19
kcat/Km [2]: 0.54
kcat/Km [3]: 0.04
kcat/Km [4]: 0.26
Km [5]: 0.119 µM
kcat [5]: 23.2 s⁻¹
kcat [6]: 3.25 s⁻¹
Km [7]: 2 µM
kcat [7]: 79 s⁻¹
Km [8]: 0.087 µM
kcat [8]: 23.2 s⁻¹
